Experiment [1] concerns the target T1, human CD33 extracellular domain (human, UniProt P20138 18-259).
T1 construct: soluble monomeric ECD; also called human CD33 ECD; hCD33
Nature of the experiment: BLI Octet, IgG loaded.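 Further: IgGs captured on AHC biosensors, exposed to 100 nM antigen for 3 min association then 3 min dissociation in buffer, kinetics fitted with a 1:1 binding model.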 Background: BLI is a label-free optical method that tracks binding on a fibre tip over time.
Method: Briefly, ForteBio affinity measurements were performed by loading IgGs on-line onto AHC sensors. Sensors were equilibrated off-line in assay buffer for 30 min and then monitored on-line for 60 seconds for baseline establishment. Sensors with loaded IgGs were exposed to 100 nM antigen for 3 minutes, and afterwards were transferred to assay buffer for 3 min for off-rate measurement. All kinetics were analyzed using the 1:1 binding model.

In the next experiment the target is T2, C domain of human CD33 (human, UniProt P20138 140-259, limits assumed).
T2 construct: recombinant C domain
Nature of the experiment: SPR, Fab captured, 37C. Background: SPR reads the build-up and loss of mass on a sensor chip optically.

For experiment [2], the target named is T3, cyno CD33 extracellular domain (Cynomolgus/Rhesus (cyno)).
T3 construct: soluble monomeric ECD; also called cyno CD33 ECD
Nature of the experiment: SPR, Fab captured, 37C.

The target in experiment [3] is T4, V domain of human CD33 (human, UniProt P20138 18-139, limits assumed).
T4 construct: recombinant, fully glycosylated V domain; also called Human CD33 V domain
Put plainly: SPR, Fab captured, 37C.
Method: (§1) Kinetics and affinity of a series of Fab fragments of anti-CD33 antibodies with different CD33 variants (human CD33 ECD, cyno CD33 ECD, V-domain of human CD33, C-domain or human CD33 and selected CD33 SNPs) were assessed by surface plasmon resonance using Biacore 8K instrument (GE Healthcare). Anti-Fab antibody was immobilized on a CMS chip using standard amine coupling chemistry. CD33 FABs were captured on the anti-Fab chip at a density of ˜100 RU. Solutions containing different concentrations of soluble monomeric CD33 or its domains were injected over the captured FABs and control surfaces at 30 μl/min at 37° C. Surfaces were regenerated between cycles by quick injection of 10 mM glycine, pH 1.8. To obtain kinetic rate constants double-referenced data were fit to a 1:1 interaction model using Biacore 8K Evaluation software (GE Healthcare). The equilibrium binding constant KD was determined by the ratio of binding rate constants kd/kₐ.

In experiment [4] the target is T4, V domain of human CD33. Nature of the experiment: SPR, Fab captured, 37C. This is another data set of the same source.
Experiment [5] concerns the target T5, deglycosylated V domain of human CD33 (human, UniProt P20138 18-139, limits assumed, N-glycans removed by PNGase).
T5 construct: V domain deglycosylated by PNGase before testing; also called deglycosylated V CD33
Put plainly: SPR, Fab captured, 37C.

The target in experiment [6] is T1, human CD33 extracellular domain. Nature of the experiment: SPR, Fab captured, 37C.
Experiment [7] shares this target. Nature of the experiment: SPR, Fab captured, 37C. The source holds these as a separate data set.
Method: as §1
The target is the same in experiment [8]. Put plainly: SPR, Fab captured, 37C. The source holds these as a separate data set.

Read-outs that look alike come from different tables or passages of the source.

Method for C domain of human CD33: as §1
The binding interface between the Fab fragment of each CD33 antibody to CD33 was mapped.

B1: ADI-11807 IgG (antibody, V domains shown)
VH: EVQLVESGGGLVQPGGSLRLSCAASGFTFGSYWMSWVRQAPGKGLEWVATIKQDGSEKSYVDSVKGRFTISRDNAKNSLYLQMNSLRAEDTAVYYCARPLNAGELDVWGQGTMVTVSS
VL: DIQMTQSPSTLSASVGDRVTITCRASQSISSWLAWYQQKPGKAPKLLIYEASSLESGVPSRFSGSGSGTEFTLTISSLQPDDFATYYCQQSQSYPPITFGGGTKVEIK
notes: IgG; also called Ab5; I07
Turning to B1, in [1], the affinity, expressed as Kd, was 0.307 nM; the koff (in general, a measure of how fast the partners let go of each other) worked out at 0.0002 s⁻¹; the on-rate (kon) (usually the rate constant with which the complex forms) turned out to be 651000 M⁻¹ s⁻¹.

B2: ADI-11809 IgG (antibody, V domains shown)
VH: EVQLVESGGGLVQPGGSLRLSCAASGFTFPSYWMSWVRQAPGKGLEWVATIKRDGSEKGYVDSVKGRFTISRDNAKNSLYLQMNSLRAEDTAVYYCARPLNAGELDVWGQGTMVTVSS
VL: DIQMTQSPSTLSASVGDRVTITCRASQSISSWLAWYQQKPGKAPKLLIYEASSLESGVPSRFSGSGSGTEFTLTISSLQPDDFATYYCQQSQSYPPITFGGGTKVEIK
notes: IgG; also called Ab6
Take B2: in experiment [1], the Kd (in general, the free concentration of one partner at which half of the binding sites on the other are occupied at equilibrium, for simple one-to-one binding) worked out at 0.313 nM; the off-rate constant (koff) is 0.0002 s⁻¹; the kon amounted to 638000 M⁻¹ s⁻¹.

B3: ADI-10158 Fab (Fab, V domains shown)
VH: QVQLQQWGAGLLKPSETLSLTCAVYGGSFSGYYWSWIRQPPGKGLEWIGEIDHSGSTNYNPSLKSRVTISVDTSKNQFSLKLSSVTAADTAVYYCARQGIHGLRYFDLWGRGTLVTVSS
VL: EIVMTQSPATLSLSPGERATLSCRASQSVSSYLAWYQQKPGQAPRLLIYDASNRATGIPARFSGSGSGTDFTLTISSLEPEDFAVYYCQQDHNFPYTFGGGTKVEIK
notes: Fab fragment; also called Ab14
Regarding B3, the figures for the binding result (in the experiment with C domain of human CD33; in experiment [2]) were “no binding” and “no binding (tested: 100 nM)”, respectively. In addition, the figures for the Kd (in the experiment with V domain of human CD33 [3]; with V domain of human CD33 [4]; in experiment [5]) were 127 nM, 127 nM and 88.1 nM, respectively. In addition, the figures for the koff (with V domain of human CD33 [3]; with V domain of human CD33 [4]; in [5]) were 0.133 s⁻¹, 0.133 s⁻¹ and 0.231 s⁻¹, respectively. The kon with V domain of human CD33 [3] is 1.04e+06 M⁻¹ s⁻¹; with V domain of human CD33 [4], 1.04e+06 M⁻¹ s⁻¹; in [5], 2.63e+06 M⁻¹ s⁻¹.

B4: ADI-10168 Fab (Fab, V domains shown)
VH: QVQLVQSGAEVKKPGSSVKVSCKASGGTFSSYAISWVRQAPGQGLEWMGSIIPIFGTANYAQKFQGRVTITADESTSTAYMELSSLRSEDTAVYYCAREVGYGWYTKIAFDIWGQGTMVTVSS
VL: EIVLTQSPATLSLSPGERATLSCRASQSVSSYLAWYQQKPGQAPRLLIYDASKRATGIPARFSGSGSGTDFTLTISSLEPEDFAVYYCQQSSNHPSTFGGGTKVEIK
notes: Fab fragment; also called Ab21
Consider B4, for which the binding result is “no binding” with C domain of human CD33, “no binding (tested: 100 nM)” in [2], “no binding” in the experiment with V domain of human CD33 [3] and “no binding” in experiment [5].

B5: ADI-10165 Fab (Fab, V domains shown)
VH: EVQLVESGGGLVQPGGSLRLSCAASGFTFSSYWMSWVRQAPGKGLEWVANIKQDGSEKYYVDSVKGRFTISRDNAKNSLYLQMNSLRAEDTAVYYCARDVGPGIAYQGHFDYWGQGTLVTVSS
VL: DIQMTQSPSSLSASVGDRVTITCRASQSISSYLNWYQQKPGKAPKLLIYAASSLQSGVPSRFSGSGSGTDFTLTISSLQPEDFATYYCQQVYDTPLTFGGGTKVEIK
notes: Fab fragment; also called Ab19
Take B5: in the experiment with C domain of human CD33, the binding result is “no binding”. Besides, the binding result in experiment [2] is “no binding (tested: 100 nM)”. Moreover, in [5], the Kd is 156 nM, the koff was 0.203 s⁻¹ and the kon turned out to be 1.3e+06 M⁻¹ s⁻¹.

B6: ADI-11776 Fab (Fab, V domains shown)
VH: EVQLLESGGGLVQPGGSLRLSCAASGFTFSKYTMSWVRQAPGKGLEWVSAIVGSGESTYFADSVKGRFTISRDNSKNTLYLQMNSLRAEDTAVYYCAREGGPYYDSSGYFVYYGMDVWGQGTTVTVSS
VL: DIQMTQSPSTLSASVGDRVTITCRASQSISSWLAWYQQKPGKAPKLLIYKASSLESGVPSRFSGSGSGTEFTLTISSLQPDDFATYYCQQYDDLPTFGGGTKVEIK
notes: Fab fragment; also called Ab3; H76
As to B6, in the experiment with C domain of human CD33, the binding result is “no binding”. Also, the Kd in experiment [6] stood at 0.78 nM; in experiment [2] it was 1.81 nM; in experiment [7], 0.78 nM; in the experiment with V domain of human CD33 [3], 0.33 nM; in the experiment with V domain of human CD33 [4] it was 0.33 nM; in [5], 0.28 nM. The molecule further yielded a Kd in [8] of 0.78 nM. Besides, the koff came out at 0.00124 s⁻¹ in experiment [6]; 0.00472 s⁻¹ in experiment [2]; 0.00124 s⁻¹ in experiment [7]; 0.00143 s⁻¹ in the experiment with V domain of human CD33 [3]; 0.00143 s⁻¹ with V domain of human CD33 [4]; 0.00136 s⁻¹ in experiment [5]. Moreover, the off-rate (koff) in experiment [8] turned out to be 0.00124 s⁻¹. Also, the kon in experiment [6] was 1.6e+06 M⁻¹ s⁻¹; in experiment [2], 2.62e+06 M⁻¹ s⁻¹; in [7], 1.6e+06 M⁻¹ s⁻¹; in the experiment with V domain of human CD33 [3], 4.52e+06 M⁻¹ s⁻¹; with V domain of human CD33 [4], 4.52e+06 M⁻¹ s⁻¹; in experiment [5], 4.85e+06 M⁻¹ s⁻¹. In [8], this molecule yielded an on-rate (kon) of 1.6e+06 M⁻¹ s⁻¹.

B7: ADI-11819 IgG (antibody, V domains shown)
VH: EVQLVESGGGLVKPGGSLRLSCAASGFTFSSYAMSWVRQAPGKGLEWVSSISSSSEGIYYADSVKGRFTISRDNAKNSLYLQMNSLRAEDTAVYYCAREGGPYYDSSGYFVYYGMDVWGQGTTVTVSS
VL: DIQMTQSPSTLSASVGDRVTITCRASNSISSWLAWYQQKPGKAPKLLIYEASSTKSGVPSRFSGSGSGTEFTLTISSLQPDDFATYYCQQYDDLPTFGGGTKVEIK
notes: IgG; also called Ab8
In [1], B7 had a Kd of 0.243 nM, a koff of 0.0002 s⁻¹ and a kon of 824000 M⁻¹ s⁻¹.

B8: ADI-11776 IgG (antibody, V domains shown)
VH: EVQLLESGGGLVQPGGSLRLSCAASGFTFSKYTMSWVRQAPGKGLEWVSAIVGSGESTYFADSVKGRFTISRDNSKNTLYLQMNSLRAEDTAVYYCAREGGPYYDSSGYFVYYGMDVWGQGTTVTVSS
VL: DIQMTQSPSTLSASVGDRVTITCRASQSISSWLAWYQQKPGKAPKLLIYKASSLESGVPSRFSGSGSGTEFTLTISSLQPDDFATYYCQQYDDLPTFGGGTKVEIK
notes: IgG; also called Ab3; H76
In [1], B8 had an equilibrium dissociation constant (Kd) of 0.294 nM, a koff of 0.0002 s⁻¹ and an on-rate constant (kon) of 679000 M⁻¹ s⁻¹.

B9: Fab fragment from Lintuzumab (Fab, V domains shown)
VH: QVQLVQSGAEVKKPGSSVKVSCKASGYTFTDYNMHWVRQAPGQGLEWIGYIYPYNGGTGYNQKFKSKATITADESTNTAYMELSSLRSEDTAVYYCARGRPAMDYWGQGTLVTVSS
VL: DIQMTQSPSSLSASVGDRVTITCRASESVDNYGISFMNWFQQKPGKAPKLLIYAASNQGSGVPSRFSGSGSGTDFTLTISSLQPDDFATYYCQQSKEVPWTFGQGTKVEIK
notes: Fab fragment
In experiment [6], B9 yielded a dissociation constant (Kd) of 16.7 nM, a koff of 0.0122 s⁻¹ and a kon of 735000 M⁻¹ s⁻¹. Also, the binding result in experiment [2] was “no binding (tested: 100 nM)”.

B10: Lintuzumab (antibody, V domains shown)
VH: QVQLVQSGAEVKKPGSSVKVSCKASGYTFTDYNMHWVRQAPGQGLEWIGYIYPYNGGTGYNQKFKSKATITADESTNTAYMELSSLRSEDTAVYYCARGRPAMDYWGQGTLVTVSS
VL: DIQMTQSPSSLSASVGDRVTITCRASESVDNYGISFMNWFQQKPGKAPKLLIYAASNQGSGVPSRFSGSGSGTDFTLTISSLQPDDFATYYCQQSKEVPWTFGQGTKVEIK
notes: IgG; also called lintuzumab IgG
In [1], B10 returned a Kd of 2.21 nM, a koff of 0.000952 s⁻¹ and a kon of 431000 M⁻¹ s⁻¹.

B11: ADI-10157 IgG (antibody, V domains shown)
VH: QVQLQESGPGLVKPSETLSLTCTVSGGSISSYYWSWIRQPPGKGLEWIGSIYYSGSTNYNPSLKSRVTISVDTSKNQFSLKLSSVTAADTAVYYCARVGGVYSTIETYGMDVWGQGTTVTVSS
VL: EIVMTQSPATLSVSPGERATLSCRASQSVSSNLAWYQQKPGQAPRLLIYGASTRATGIPARFSGSGSGTEFTLTISSLQSEDFAVYYCQQYTVYPPTFGGGTKVEIK
notes: IgG; also called Ab13
In [1], B11 registered a Kd of 4.2 nM, a koff of 0.000336 s⁻¹ and a kon of 79900 M⁻¹ s⁻¹.

B12: ADI-11839 IgG (antibody, V domains shown)
VH: QVQLVQSGAEVKKPGASVKVSCKASGYTFSNYYMHWVRQAPGQGLEWMGWINPFSGGTRYAQKFQGRVTMTRDTSTSTVYMELSSLRSEDTAVYYCARDVGSSAYYYMDVWGKGTTVTVSS
VL: DIQMTQSPSSVSASVGDRVTITCEASKGISSWLAWYQQKPGKAPKLLIYAASDLQSGVPSRFSGSGSGTDFTLTISSLQPEDFATYYCQQAFLFPPTFGGGTKVEIK
notes: IgG; also called Ab28
B12: in experiment [1], the Kd turned out to be 2.45 nM, the koff stood at 0.00172 s⁻¹ and the kon worked out at 704000 M⁻¹ s⁻¹.

B13: ADI-11835 IgG (antibody, V domains shown)
VH: QLQLQESGPGLVKPSETLSLTCTVSGGSISSTDYYWGWIRQPPGKGLEWIGSIGYSGTYYNPSLKSRVTISVDTSKNQFSLKLSSVTAADTAVYYCARETAHDVHGMDVWGQGTTVTVSS
VL: EIVLTQSPATLSLSPGERATLSCRASHSVYSYLAWYQQKPGQAPRLLIYDASNRATGIPARFSGSGSGTDFTLTISSLEPEDFAVYYCQQYDNLPTFGGGTKVEIK
notes: IgG; also called Ab10; I35
In experiment [1], B13 gave a Kd of 0.281 nM, a koff of 0.000237 s⁻¹ and a kon of 844000 M⁻¹ s⁻¹.
